From FireProtDB come the findings set out here.

“And” between values parts separate entries of the source, which are not always exact repeats. Equal values may be shown once.

The conditions of the data set: whole UniProt chain shown.
Where [1] appears, read: Salmonella phage P22, pH 7.3, Thermal, CD, Potassium phosphate 10 mM, KCl 100 mM, reversible: yes.
Setting [2] is: Salmonella phage P22, pH 7.5, 20 °C, GdnHCl, CD, Tris-HCl 50 mM, KCl 100 mM, reversible: yes.
[3] abbreviates: Salmonella phage P22, pH 7.5, 20 °C, GdnHCl, Fluorescence, Tris-HCl 50 mM, KCl 100 M, reversible: yes.
Setting [4] is: Salmonella phage P22, pH 7.5, 20 °C, Urea, Fluorescence, Tris-HCl 50 mM, KCl 100 mM, reversible: yes.
The mark [5] stands for this setting: Salmonella phage P22, pH 7.5, 25 °C, GdnHCl, CD, Tris-HCl 50 mM, KCl 250 mM.
Setting [6] is: Salmonella phage P22, pH 7.5, 25 °C, GdnHCl, Fluorescence, Tris-HCl 50 mM, KCl 100 M, reversible: yes.
The mark [7] stands for this setting: Salmonella phage P22, pH 7.5, 25 °C, Urea, CD, Tris 50 mM, KCl 50 mM.
[8] abbreviates: Salmonella phage P22, pH 7.5, 25 °C, Urea, CD, Tris-Cl 10 mM, KCl 250 mM.
Where [9] appears, read: Salmonella phage P22, pH 7.5, 25 °C, Urea, CD, Tris-HCl 50 mM, KCl 250 mM, reversible: yes.
Where [10] appears, read: Salmonella phage P22, pH 7.5, Thermal, CD, Tris-HCl 50 mM, KCl 250 mM, reversible: yes.
[11] abbreviates: Salmonella phage P22, pH 7.5, Thermal, CD, Tris-HCl 50 mM, KCl 100 M, reversible: yes.
Where [12] appears, read: Sus scrofa, pH 6.5, 20 °C, GdnHCl, Fluorescence, MES-NaOH 20 mM, NaCl 100 mM, reversible: yes.
The mark [13] stands for this setting: Staphylococcus aureus, pH 7, 30 °C, GdnHCl, CD, Sodium phosphate/Sodium sulfate 1.0 mM/10 mM/, reversible: yes.
The mark [14] stands for this setting: Staphylococcus aureus, pH 7, Thermal, DSC, phosphate 100 mM, reversible: yes(75%).
Setting [15] is: Staphylococcus aureus, pH 7.5, 25 °C, Urea, CD, Tris-HCl 0.1 M, KCl 0.2 M, reversible: yes.

B1: Transcriptional repressor arc wild type, P03050 (protein)
chain: MKGMSKMPQFNLRWPREVLDLVRKVAEENGRSVNSEIYQRVMESFKKEGRIGA
One may read the Tm as the temperature at which the thermal transition is half complete. Consider B1, for which the Tm by setting is: under setting [1], 54 °C; (Salmonella phage P22, pH 7.5, 25 °C, Thermal, CD, Tris-HCl 50 mM, KCl 50 mM) 56.8 °C; (Salmonella phage P22, pH 7.5, Thermal, CD, Potassium phosphate 10 mM, KCl 100 mM) 54 °C; (Salmonella phage P22, pH 7.5, Thermal, CD, Tris-HCl 50 mM, KCl 50 mM) 56.8 °C; under setting [10], 58.3 °C and 59 °C and 57.9 °C; under setting [11], 53.4 °C. The “heat capacity change of unfolding” value under setting [1] worked out at 1.6 kcal/mol/K. The “unfolding enthalpy (van 't Hoff)” value under setting [1] is 297 kJ/mol; the “unfolding enthalpy (van 't Hoff)” value under setting [10] is 261 kJ/mol and 245 kJ/mol; the “unfolding enthalpy (van 't Hoff)” value under setting [11] stood at 231 kJ/mol. The unfolding free energy by setting is: under setting [1], 30.5 kJ/mol; under setting [2], 46.4 kJ/mol; under setting [3], 41.7 kJ/mol; under setting [4], 40.1 kJ/mol; under setting [5], 43.1 kJ/mol; under setting [6], 42.1 kJ/mol. Besides, the unfolding free energy was 46 kJ/mol (Salmonella phage P22, pH 7.5, 25 °C, Thermal, CD, Tris-HCl 50 mM, KCl 250 mM); 43.5 kJ/mol under setting [7]; 41.5 kJ/mol under setting [8]; 26.4 kJ/mol and 45.6 kJ/mol and 46 kJ/mol under setting [9]. Also, the denaturant m value came to 3.27 kcal/mol/M under setting [2]; 2.98 kcal/mol/M under setting [3]; 1.37 kcal/mol/M under setting [4]; 3 kcal/mol/M under setting [5]; 3.03 kcal/mol/M under setting [6]; 1.5 kcal/mol/M under setting [7]. Further, the denaturant m value was 1.21 kcal/mol/M under setting [8]; 1.36 kcal/mol/M and 1.57 kcal/mol/M and 1.64 kcal/mol/M under setting [9]. For the same protein, the “denaturant midpoint (higher = more stable)” value was 6.7 M under setting [4], 1.1 M under setting [5] and 4.65 M under setting [9].

B2: Pilin wild type, Q9A1S2 (protein)
chain: MKLRHLLLTGAALTSFAATTVHGETVVNGAKLTVTKNLDLVNSNALIPNTDFTFKIEPDTTVNEDGNKFKGVALNTPMTKVTYTNSDKGGSNTKTAEFDFSEVTFEKPGVYYYKVTEEKIDKVPGVSYDTTSYTVQVHVLWNEEQQKPVATYIVGYKEGSKVPIQFKNSLDSTTLTVKKKVSGTGGDRSKDFNFGLTLKANQYYKASEKVMIEKTTKGGQAPVQTEASIDQLYHFTLKDGESIKVTNLPVGVDYVVTEDDYKSEKYTTNVEVSPQDGAVKNIAGNSTEQETSTDKDMTITFTNKKDFEVPTGVAMTVAPYIALGIVAVGGALYFVKKKNA
For the protein B2, the melting temperature (Tm) (Streptococcus pyogenes serotype M1, pH 8, Thermal, CD, potassium phosphate buffer 10 mM, transition: 2) stood at 85.1 °C.

B3: Glutathione S-transferase omega-1 wild type, Q9N1F5 (protein)
chain: MSGGSARSLGKGSAPPGPVPEGLIRVYSMRFCPFAQRTLLVLNAKGIRHQVININLKNKPEWFFQKNPSGLVPVLENSQGQLIYESAITCEYLDEAYPGKKLLPDDPYEKACQKMVFELSSKVPPLLIRFIRRENEADCSGLKEELRKEFSKLEEVLTKKKTTYFGGSSLSMIDYLIWPWFERLEALELNECIDHTPKLKLWMAAMMKDPAVSALHIEPRDLRAFNDLYLQNSPEACDYGL
Consider B3, for which, under setting [12], the denaturant m value amounted to 11.1 kcal/mol/M and the unfolding free energy amounted to 97.5 kJ/mol. Moreover, for the setting “Sus scrofa, pH 6.5, 20 °C, Urea, Fluorescence, MES-NaOH 20 mM, NaCl 100 mM, reversible: yes”, the denaturant m value was 4.6 kcal/mol/M.

B4: wild type, Q9EYL5 (protein)
chain: MTKKLLTLFIVSMLILTACGKKESATTSSKNGKPLVVVYGDYKCPYCKELDEKVMPKLRKNYIDNHKVEYQFVNLAFLGKDSIVGSRASHAVLMYAPKSFLDFQKQLFAAQQDENKEWLTKELLDKHIKQLHLDKETENKIIKDYKTKDSKSWKAAEKDKKIAKDNHIKTTPTAFINGEKVEDPYDYESYEKLLKDKIK
Regarding B4, the “denaturant midpoint (higher = more stable)” value was 1.66 M under setting [13]; 4.2 M and 5.6 M and 5.62 M under setting [15]. For the same protein, the unfolding free energy was 33.5 kJ/mol under setting [13]; 48.7 kJ/mol and 65.9 kJ/mol (Staphylococcus aureus, pH 7, 30 °C, Thermal, DSC, phosphate 100 mM, reversible: yes(75%)); 46.4 kJ/mol (Staphylococcus aureus, pH 7, 30 °C, Thermal, Fluorescence, Sodium phosphate 100 mM, EDTA 1 mM, reversible: yes); 29.3 kJ/mol (Staphylococcus aureus, pH 7, 30 °C, Thermal, Fluorescence, Sodium phosphate 100 mM, reversible: yes); 34.7 kJ/mol and 52.8 kJ/mol (Staphylococcus aureus, pH 7, 30 °C, Thermal, Fluorescence, phosphate 100 mM, reversible: yes(75%)); 36.4 kJ/mol and 51.5 kJ/mol and 54 kJ/mol under setting [15]. The melting temperature (Tm) under setting [14] was determined as 68.4 °C. In addition, the “heat capacity change of unfolding” value under setting [14] is 2.22 kcal/mol/K. Also, under setting [14], the “unfolding enthalpy (calorimetric)” value amounted to 618 kJ/mol. Further, the “unfolding enthalpy (van 't Hoff)” value under setting [14] turned out to be 572 kJ/mol.
